This data set can be described thus: self-splicing fitness, log relative to wild type (ln ratio); higher = more splicing; Tetrahymena group I intron in knt gene, E. coli kanamycin selection, DiMSum; sequences stand for … in CUCUCU…GGAGGGAAAAGUUAUCAGGCAUGCACCUGGUAGCUAGUCUUUAAACCAAUAGAUUGCAUCGGUUUAAAAGGCAAGACCGUCAAAUUGCGGGAAAGGGGUCAACAGCCGUUCAGUACCAAGUCUCAGGGGAAACUUUGAGAUGGCCUUGCAAAGGGUAUGGUAAUAAGCUGACGGACAUGGUCCUAACCACGCAGCCAAGUCCUAAGUCAACAGAUCUUCUGUUGAUAUGGAUGCAGUUCACAGACUAAAUGUCGGUCGGGGAAGAUGUAUUCUUCUCAUAAGAUAUAGUCGGACCUCUCCUUAAUGGGAGCUAGCGGAUGAAGUGAUGCAACACUGGAGCCGCUGGGAACUAAUUUGUAUGCGAAAGUAUAUUGAUUAGUUUUGGAGUACUCGUGGUCG
The method, boiled down:
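Library with all eight P1ex-region intron nucleotides randomised, intron inside the knt kanamycin-resistance gene on pET-22b(+), in E. coli BL21(DE3). Cells grew overnight at 37°C or 30°C on LB agar with or without 25 μg/mL kanamycin (plus 100 μg/mL carbenicillin, 50 μM IPTG, 0.2% rhamnose), in six replicate transformations. Pooled colonies were amplicon-sequenced on Illumina HiSeq 2500. DiMSum fitness is the error-weighted combination of wild-type-normalised replicate fold changes, kanamycin versus none.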

Consider 34 sequences from the supplement of paper PMC7877785.

± gives the uncertainty stated by the source.

Regarding GCUCAGCAAUAUUACGGCGA, the “self-splicing fitness (ln)” value is -1.73 ± 0.12 (30 °C) and -1.36 ± 0.19 (37 °C).
The corresponding values for AUUUAGCAAUAUUACGGCCA are -0.814 ± 0.21 and -0.925 ± 0.23.
Consider UCCCAGCAAUAUUACGGGCA, for which the “self-splicing fitness (ln)” value is -0.512 ± 0.082 (30 °C) and -0.2 ± 0.097 (37 °C).
On to CGACAGCAAUAUUACGACCG, for which the “self-splicing fitness (ln)” value is -0.981 ± 0.1 (30 °C) and 0.0442 ± 0.18 (37 °C).
Taken in the same sequence, the figures for ACUGAGCAAUAUUACGUGGA were -2.94 ± 0.2 and -2.88 ± 0.2.
Taken in the same sequence, the figures for UCAUAGCAAUAUUACGUCUU were -3.28 ± 0.24 and -3.53 ± 0.32.
Taken in the same sequence, the figures for UCCGAGCAAUAUUACGAGAU were -3.41 ± 0.24 and -2.02 ± 0.29.
Consider CUAAAGCAAUAUUACGGAAG, for which the “self-splicing fitness (ln)” value runs as follows: (30 °C) -0.274 ± 0.062; (37 °C) 0.0341 ± 0.083.
Consider CUAGAGCAAUAUUACGACCA, for which the “self-splicing fitness (ln)” value runs as follows: (30 °C) -2.61 ± 0.23; (37 °C) -1.15 ± 0.28.
Taken in the same sequence, the figures for CGUAAGCAAUAUUACGAAAG were -1.98 ± 0.13 and -0.821 ± 0.12.
Taken in the same sequence, the figures for CGCCAGCAAUAUUACGUAGA were -1.25 ± 0.086 and -1.18 ± 0.13.
Take GCAUAGCAAUAUUACGUAAU: the “self-splicing fitness (ln)” value is -2.58 ± 0.1 (30 °C) and -0.793 ± 0.096 (37 °C).
The corresponding values for GGUUAGCAAUAUUACGCCCA are -0.993 ± 0.27 and -1.13 ± 0.3.
Taken in the same sequence, the figures for CGAAAGCAAUAUUACGGAUU were -3.5 ± 0.2 and -2.63 ± 0.19.
The corresponding values for CCUCAGCAAUAUUACGGGCU are -2.67 ± 0.18 and -2.57 ± 0.25.
For the sequence AGCUAGCAAUAUUACGAGCG, the “self-splicing fitness (ln)” value by setting is: (30 °C) -0.417 ± 0.085; (37 °C) -0.0421 ± 0.11.
The corresponding values for CAGAAGCAAUAUUACGCAAU are -4.46 ± 0.42 and -2.79 ± 0.24.
Consider GAAGAGCAAUAUUACGACAC, for which the “self-splicing fitness (ln)” value was -1.1 ± 0.31 (30 °C) and 0.351 ± 0.33 (37 °C).
Taken in the same sequence, the figures for CCUAAGCAAUAUUACGUACC were -4.63 ± 0.46 and -2.75 ± 0.31.
Take GUUAAGCAAUAUUACGUAAA: the “self-splicing fitness (ln)” value runs as follows: (30 °C) -1.45 ± 0.12; (37 °C) -1.43 ± 0.12.
The corresponding values for GAUAAGCAAUAUUACGCGGC are -3.27 ± 0.26 and -1.13 ± 0.2.
As for UUCGAGCAAUAUUACGAUUC, the “self-splicing fitness (ln)” value (30 °C) was -3.5 ± 0.44.
As to UGUAAGCAAUAUUACGUCUC, for the setting “37 °C”, the “self-splicing fitness (ln)” value is -1.56 ± 0.23.
Regarding CCCAAGCAAUAUUACGGGUG, the “self-splicing fitness (ln)” value reads like this: (30 °C) -3.36 ± 0.093; (37 °C) -1.79 ± 0.077.
In the case of AGUAAGCAAUAUUACGAAUA, the “self-splicing fitness (ln)” value (30 °C) is -1.84 ± 0.38.
GGUGAGCAAUAUUACGAUUA: the “self-splicing fitness (ln)” value (37 °C) is -0.938 ± 0.45.
Turning to CAGAAGCAAUAUUACGUGAC, the “self-splicing fitness (ln)” value is -3 ± 0.22 (30 °C) and -2.18 ± 0.21 (37 °C).
The corresponding values for CCGGAGCAAUAUUACGAGGC are -1.99 ± 0.34 and -2.86 ± 0.38.
The corresponding values for UUGCAGCAAUAUUACGCGUC are -3.44 ± 0.15 and -1.61 ± 0.14.
Taken in the same sequence, the figures for CAUUAGCAAUAUUACGACGG were -0.257 ± 0.094 and -0.0198 ± 0.13.
In the case of UAAUAGCAAUAUUACGGCAA, the “self-splicing fitness (ln)” value (30 °C) was -1.99 ± 0.14 and the “self-splicing fitness (ln)” value (37 °C) is -0.69 ± 0.12.
On to CGCUAGCAAUAUUACGAAAA, for which the “self-splicing fitness (ln)” value is, setting by setting: (30 °C) -1.65 ± 0.16; (37 °C) -1.98 ± 0.15.
AACGAGCAAUAUUACGCGAA: the “self-splicing fitness (ln)” value reads like this: (30 °C) -4 ± 0.29; (37 °C) -2.96 ± 0.28.
The corresponding values for GUCAAGCAAUAUUACGACUC are -1.73 ± 0.15 and -0.881 ± 0.15.
